Our source for the binding score values is PMC10720262 (2023).

B1: CL-510427 (antibody, V domains shown)
VH: QVQLVESGGGVVQPGRSLRLSCAASGFTFSNYGMHWVRQAPGKGLEWVAVIWYDGSKEDYADSVKGRLTISRDNSKNTLYLQMNSLRAEDTAVYYCARDGDSRGWYAFDYWGQGTLVTVSS
VL: not shown
modifications: peptides N-terminally acetylated and C-terminally amidated
B2: CL-509326 (antibody, V domains shown)
VH: QVYLVESGEGVVQPGRSLRLSCAASGFTFSNYGMHWVRQAPGKGLEWVAVIWYNGNNKFYADSVKGRFTISRDNSKNTLFLQMNSLRAEDTAVYFCARSGYSRSSYFDYWGQGTLVTVSS
VL: QSVLTQPPSVSGAPGQRVTISCTGSSSNIGAVYDVHWYQQLPGTAPKLLIYGNTNRPSGVPDRFSGSQSGTSASLAITGLQAEDEADYYCQSYDSSLSGSVFGGGTKLTVL
modifications: peptides N-terminally acetylated and C-terminally amidated
B3: CL-441816 (antibody, V domains shown)
VH: QEQLVESGGGVVQPGRSLRLSCATSGFTFSTYGLHWVRQSPGKGLEWVTVIWYDGSNKFYADSVKGRFTISRDNSKNTLYLQMNSLRAEDTAVYYCARALYSSRWYGAFDIWGQGTMVTVSS
VL: QSVLTQPPSVSGAPGQRVTISCTGSSSNIGAGYDVHWYQLLPGTAPKLLIYGNSNRPSGVPDRFSGSKSGTSASLAITGLQAEDEADYYCQSYIRSLSGSVFGGGTKLTVL
modifications: peptides N-terminally acetylated and C-terminally amidated
B4: CL-510458 (antibody, V domains shown)
VH: QVQLVESGGGVVQPGRSLRLSCAASGFTFNNYGMHWVRQAPGKGLEWVAVIWYDGSNKFHADSVKGRFTISRDNSKNTLYLQMNSLRAEDTALYYCARVYYYDSGSYLDYWGQGTLVTVSS
VL: DIQMTQSPSSVSASVGDRVTITCRASQGISRWLAWYQQKPGKAPKLLIYAASSLQSGVPSRFSGSGSGTDFTLTISSLQPEDFATYCCQQANNFPWTFGQGTKVEIK
modifications: peptides N-terminally acetylated and C-terminally amidated
B5: CL-445901 (antibody, V domains shown)
VH: QVQLVESGGGVVQPGRSLRLSCAASGFTFSNYGIHWVRQAPGKGLEWVALIWFNGNNKFYADSVEGRFTVSRDNSKNTLYLQLNSLRAEDTAVYYCARAYYFASGNYMDYWGQGTLVTVSS
VL: DIQMTQSPSSVSASMGDRVTITCRASQDISSSLAWYQQKPGKAPILLISFASSLHSGVPSRFSGSGSGTDFTLTISSLQPEDFATYSCQQANSFPWTFGQGTRVEVK
modifications: peptides N-terminally acetylated and C-terminally amidated
B6: Ky311 (antibody, V domains shown)
VH: QMHLVESGGGVVQPGRSLRLSCVASGFTFNNHGMHWVRQAPGKGLEWVAVIWHDGSNKFYADSVNGRFIVSRDNSKNTLYLHMNSLRAEDTAVYYCARDFFVSGSYNYFDPWGQGTLVTVSS
VL: EIVLTQSPVTLSLSPGERATLSCRASQSVSNYLAWYQQKPGQAPRLLIYDAANRATGTPARFSGSGSGTDFTLTISSLEPEDFAVYFCQQRSKWFTFGPGTKLDIK
modifications: peptides N-terminally acetylated and C-terminally amidated
B7: CL-460369 (antibody, V domains shown)
VH: QVQLVESGGGVVQPGRSLRLSCAASGFTFSNYGMHWVRQAPGKGLEWVGIIWYDGSNKYYIDSVKGRFTISRDNSRNTLYLQINSLRAEDTAVYYCARDGGWNDDYYYVMDVWGQGTTVTVSS
VL: DIVMTQSPDSLAVSLGEGATINCKSSQSVLYSSNNKNYLAWYQQKPGQPPKVLIYWASIRESGVPDRFSGSGSGTDFTLTISSLQAEDVAVYYCQQYYSMCSFGQGTKLEIK
modifications: peptides N-terminally acetylated and C-terminally amidated
B8: CL-514716 (antibody, V domains shown)
VH: QIQLVESGGGVVQPGRSLRLSCAASGFTFSTYGMHWVRQAPGKGLEWVAVIWYDGSNKYYADSVQGRFTISRDNSKNTLYLQMNSLRAEDTAIYYCTTVGPIPFDYWGQGTLVTVSS
VL: DIVMTQTPLSSPVILGQPASISCRSSQSLVHSSGNTYLSWLQQRPGQPPRLLIYKTFKRLSGVPDRFSGSGAGTDFTLKISRVEAEDVGVYYCLQSTQFPLTFGGGTKVEIK
modifications: peptides N-terminally acetylated and C-terminally amidated
B9: CL-511296 (antibody, V domains shown)
VH: QVQLVASGGGVVQPGRSQRLSCAASGFTFSNYGMHWVRQSPGRGLEWVAIIWYDGSNKFYADSVKGRFTISRDNSRNTLFLQMNSLRAEDTAIYYCAKSEERTSDNYFKYGMDVWGQGTTVIVST
VL: DIQMTQSPSTLSASVGDRVTITCRASQSISSWLAWYQQKPGKAPKLLIYKASNLESGVPSRFSGSGSGTEFTLSISNLQPDDFATYFCQQYTSYWTFGQGTKVEIK
modifications: peptides N-terminally acetylated and C-terminally amidated
B10: CL-513617 (antibody, V domains shown)
VH: QVQLVESGGGVVQPGRSLRLSCAASGFIFSNYGMYWVRQTPDKGLEWVALIWYDGGNKFYSDSVKGRFTVSRDNSKNTLYLQMNSLRDEDTALYYCARAGYFYGSGSSLDKWGQGTLVTVSS
VL: DIQMTQSPSTLSASVGDRVSITCRASQSISIWLAWYQQKPGKAPKLLIYKASSLESGVPSRFSGSGSGTEFSLTISSLQPDDFATYYCQQYNRYWTFGQGTKVEIK
modifications: peptides N-terminally acetylated and C-terminally amidated
B11: CL-512011 (antibody, V domains shown)
VH: QVQLVESGGGVVQPGRSLRLSCVTSGFTFSSFGMHWVRQAPGKGLEWVALIWYDGSHKFYADSLTGRFTISRDNSKNTLYLQMNSLRVEDTAVYYCARAHAVTTANDKYGTDVWGQGTTVNVSP
VL: DIQMTQSPSTLSASVGDRVTITCRASQSISSWLAWYQHKPGNAPKLLIYKASNLESGVPSRFSGSGSGTEFTLTISSLQPDDFATYFCQQYNSYWTFGQGTKVEVK
modifications: peptides N-terminally acetylated and C-terminally amidated
B12: CL-512275 (antibody, V domains shown)
VH: QVQLVESGGGVVQPGGSFRLSCETSGFTFSNFGMHWVRQAPGKGLEWVALIWYDGSHKFYADSLTGRFTISRDNSKNTLYLQMNSLRVEDTAVYYCARAHSVTTANDKYGTDVWGQGTTVTVSP
VL: DIQMTQSPSTLSASVGDRVTITCRASQSISSWLAWYQHKPGRAPKLLIYKASSLESGIPSRFSGSGSGTEFTLTISSLQPDDFATYFCQQYNSYWTFGQGTKVEIK
modifications: peptides N-terminally acetylated and C-terminally amidated
B13: CL-510487 (antibody, V domains shown)
VH: QVQLEESGGGVVQPGRSLRLSCTATGFTFSNYGMHWVRQAPGRGLEWVGVIWYDGSNKFYVDSVKGRFTISRDNSKNTLYLQMNSLRAEDTAVYYCARDGGYYGSGSYWWFDSWGQGTLVTVSS
VL: DIQMTQSPSTLSASVGDRVTITCRASQSISSWLAWYQQKPGKAPKLLIYKASSLERGVPSRFSGSGSGTEFTLTISSLQPDDFATYYCQQYNRYCSFGQGTKLEIK
modifications: peptides N-terminally acetylated and C-terminally amidated
B14: Ky15.5 (antibody, V domains shown)
VH: QVQMVASGGGVVQPGRSLRLSCAVSGFTFRNFGMHWVRQDPGRGLEWVAIIWYDGSYEFYADSVKGRFTISRDNSKNTLYLQMNSLRAEDTAVYYCARSYGSLTGDETKYGMDVWGQGTTVTVSS
VL: DIQMTQSPSTLSASVGDRVTITCRASQSISSWLAWFQQKPGKAPKLLIYKASSLESGVPSRFSGSGSGTEFTLTISSLQPDDFATYYCQQYKNYWTFGQGTKVEIK
modifications: peptides N-terminally acetylated and C-terminally amidated
B15: CL-511026 (antibody, V domains shown)
VH: QVQLVESGGGVVQPGRSLRLSCAASGFTFSNFGMHWVRQAPDRGLEWVSIIWYDGSNKFYADSVKGRFTISRDNSKNTLFLQMDSLRAEDTAVYYCAKAEMRTSDYYNYGMDVWGQGTTVTVSS
VL: DIQMTQSPSTLSASVGDRVTITCRASQSISSWLAWYQQKPGKAPKLLIYKASSLESGVPSRFSGSGSATEFTLTIRSLQPDDFATYYCQQYYSYWTFGQGTKVEIN
modifications: peptides N-terminally acetylated and C-terminally amidated
B16: CL-513069 (antibody, V domains shown)
VH: QVQLVESGGGVVQPGKSLRLSCEASGFTFSNYGMHWVRQAPGKGLDWVAIIWHDGGNKFYADSVRGRFTISRDNSKNTLFLQMNSLRAEDSAVYYCARVFDFRDSCYTMDVWGQGTTVTVSS
VL: DIQMTQSPSTLSASVGDRVTITCRASQSISSWLAWYQQKPGKAPKLLIYKASSLESGVPSRFSGSGSGTEFSLTISSLQPDDFATYYCQQYTRYWTFGQGTRVEIQ
modifications: peptides N-terminally acetylated and C-terminally amidated
B17: CL-460619 (antibody, V domains shown)
VH: QVQLVESGGGVVQPGRSLRLSCAASGFTFDYYGMHWVRQAPGKGLEGVAIIWYDGSNKFYADSVKGRFTISRDNSKNTLYLQMTSLRVEDTAVYYCARDGRIGDPGPYFDYWGQGTLVTVSS
VL: EIVMTQSPATLSVSPGERPTLSCRASQSVSSKLAWYQQKPDQAPRLLIYGASTRATGIPPRFSGSGSGTEFTLTIDSLQSEDFAVYYCQQYHKWWTFGQGTKVEIK
modifications: peptides N-terminally acetylated and C-terminally amidated
B18: CL-512191 (antibody, V domains shown)
VH: QVQLVESGGGVVQPGRSLRLSCAASGFTFSNYAMHWVRQAPGKGLEWVAVIWYDGSNKYYADSVKGRFTISRDDSKNTLYLQMNSLRAEDTAVYYCARDKGYRYGFNWFDPWGQGTLVTVSS
VL: QSVLTQPPSVSGAPGQRVTISCTGSSSNIGAGYDVHWYQKLPGTAPKLLIFSNSNRPSGVPDRFSGSKSGTSASLAITGLQAEDEADYYCQSYDSSLSGSRVFGGGTKLTVL
modifications: peptides N-terminally acetylated and C-terminally amidated
B19: CL-512023 (antibody, V domains shown)
VH: QVQLMESGGGVVQPGRSLRLSCEASGFTFSNSGMHWVRQAPGKGLEWVAIIWYDGSNRYYVDSVKGRFTISRDNSKNTLYLQMNSLRAEDTAVYYCARDGGNRYGYGWFDSWGQGTLVTVSS
VL: QSVLTQPPSVSGAPGQRVTISCTGSSSNIGAGYDVHWYQQLPGTAPKLLIYGNTNRPSGVPDRFSGSKSGTSASLAITGLQAEDEADYYCQSYDSSLGGSRRVFGGGTKLTVL
modifications: peptides N-terminally acetylated and C-terminally amidated
B20: CL-509880 (antibody, V domains shown)
VH: QVQLVESGGGVVQPGRSLRLSCAASGFTFSNSGMHWVRQAPGKGLEWVAVIWYDGSNKYYADSVKGRFTVTRDNSKNTLYLQMNSLRAEDTAVYYCVRAYYGSGSYHFKYGMDVWGQGTTVTVSS
VL: not shown
modifications: peptides N-terminally acetylated and C-terminally amidated
B21: Ky230 (antibody, V domains shown)
VH: QVQLVESGGGVVQPGRSLRLSCAASGFTFSDYGMHWVRQAPGKGLEWVAIIWHDGSNKYYVDSVKGRFTISRDNSKNTLYLQMNSLRAEDTAVYYCARAASSFGSGFDYWGQGTLVTVSS
VL: DVVMTQSPLSLPVTLGQPASIFCRSSQSLVYSDGNTYLNWFQRRPGQSPRRLIYKVSDRDSGVPDRFSGSGSGTDFTLQISRVEAEDVGVYYCMQGTHWPPTFGQGTKVEIK
modifications: peptides N-terminally acetylated and C-terminally amidated
B22: CL-462788 (antibody, V domains shown)
VH: QVQLVESGGGVVQPGRSLRLSCAASGFTFRNYGMHWVRQAPGKGLEWVAIIWYDGSYKFYADSVKGRFTISRDNSKNTLYLQMNSLRAEDTAMYYCARDDALELRSFDIWGQGTMVTVSS
VL: DVVMTQSPLSLPVTLGQPASISCRSSQSLVYSDENTYLSWFQQRPGQSPRRLIYKISNRDSGVPDRFSGSGSGTDFTLKISRVEAEDVGVYYCMQGTHWPRTFGQGTEVEIK
modifications: peptides N-terminally acetylated and C-terminally amidated

The test deals with PfCSP full length (Plasmodium falciparum (isolate NF54), UniProt P19597). The test is described as follows: ELISA AUC. (In an ELISA, binding on a coated surface is turned into a signal by an enzyme label.)
Chain of PfCSP full length (P19597 20-375): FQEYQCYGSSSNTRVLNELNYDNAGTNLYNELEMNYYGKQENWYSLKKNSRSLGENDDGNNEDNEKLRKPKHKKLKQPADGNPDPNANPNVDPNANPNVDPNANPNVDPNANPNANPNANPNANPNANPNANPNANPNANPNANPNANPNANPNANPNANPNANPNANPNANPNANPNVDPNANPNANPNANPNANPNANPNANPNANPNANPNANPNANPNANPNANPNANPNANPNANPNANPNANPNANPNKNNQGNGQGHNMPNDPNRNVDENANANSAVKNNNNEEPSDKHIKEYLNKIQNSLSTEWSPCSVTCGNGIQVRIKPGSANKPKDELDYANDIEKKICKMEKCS
With B1, the binding score came to 2.39.

For B2, the binding score turned out to be 2.19.

Molecule B3 showed a binding score of 2.4.

The molecule B4 registered a binding score of 2.

B5 had a binding score of 2.4.

With B6, the binding score was 2.22.

Take B7: the binding score was 2.3.

Take B8: the binding score worked out at 1.75.

As to B9, the binding score was 2.34.

For B10, the binding score stood at 2.59.

Molecule B11 returned a binding score of 2.5.

For the molecule B12, the binding score worked out at 2.54.

With B13, the binding score turned out to be 1.83.

As for B14, the binding score amounted to 2.4.

B15 gave a binding score of 2.08.

For the molecule B16, the binding score was determined as 2.2.

B17 yielded a binding score of 2.2.

As to B18, the binding score worked out at 2.31.

As to B19, the binding score amounted to 2.59.

Turning to B20, the binding score came to 1.97.

Molecule B21 came in with a binding score of 2.4.

B22 came in with a binding score of 2.3.
